# Target: T1, LeuO (rLeuO) (Vibrio vulnificus MO6-24/O?) (UniProt A0A087INQ4)
# T1 sequence: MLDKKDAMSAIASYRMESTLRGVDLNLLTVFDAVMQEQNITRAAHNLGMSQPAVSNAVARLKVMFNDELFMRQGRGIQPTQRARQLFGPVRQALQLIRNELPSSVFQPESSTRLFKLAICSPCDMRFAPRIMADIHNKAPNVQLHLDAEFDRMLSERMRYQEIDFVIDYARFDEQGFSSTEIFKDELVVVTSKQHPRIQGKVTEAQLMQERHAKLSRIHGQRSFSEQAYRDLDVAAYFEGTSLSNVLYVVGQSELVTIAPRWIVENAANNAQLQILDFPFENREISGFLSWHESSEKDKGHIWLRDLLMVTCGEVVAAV
# Assay: EMSA
# Conditions: 10 mM Tris-HCl pH 7.4, 10 mM KCl, 1 mM EDTA, 0.1 mM DTT, 50 ug/ml BSA, 5% glycerol, 1 ug poly(dI-dC), 10 ng probe in 20 ul, 30 min at 37 C; 6% neutral …
sequence,measurement,value
GAGTTTGACGCTAAAAAATAGTGATGTGCAGCAAAAATAAGTAAAAGTTTACGCTGATAGGCTCGAAAAGGCTTGTCAGCGTTTTTTTTGGGAGCTAAGTTAGAGCTCGATGGCTGCCAGCCCTTTTAAGATAAGGCTTGGCGCTAATTTTTAGTATTAATGGAACGAAAGTCATCTAAAAAAATAATCACAGATGGCACAAAGGGGAATCACAGTGAACAAAACTCAACTAGTAGAATCAATCGCTGCAAACGCAGAT (double strand) [vhuB upstream region],binding,binds

# Source: article PMC6105893
